Measured values taken from doi:10.1101/2024.12.02.626503 (bioRxiv, 2024).
Each block holds one binder with its values, some of them ahead of it. The star is where a group is joined. 5‑TAMRA = CN(C)c1ccc2c(-c3ccc(C(=O)*)cc3C(=O)[O-])c3ccc(N(C)C)cc3[o+]c2c1

Biological target: CaM WT (UniProt P0DP23 1-149)
Test: fluorescence polarisation

binding result: binds
B1: 5-TAMRA-labeled CaV1.3 IQ peptide (peptide)
peptide: not shown
modifications: 5-TAMRA on the N-terminus; C-terminal amide (NH2)

binding result: binds
B2: 5-TAMRA-labeled CaV2.1 IQ peptide (peptide)
peptide: {5‑TAMRA}-TDLTVGKIYAAMMIMEYYRQSKAKKLQAMREEQD-NH2
SMILES: CC[C@H](C)[C@H](NC(=O)[C@H](CCCCN)NC(=O)CNC(=O)[C@@H](NC(=O)[C@@H](NC(=O)[C@H](CC(C)C)NC(=O)[C@H](CC(=O)O)NC(=O)[C@@H](NC(=O)c1ccc(-c2c3ccc(N(C)C)cc3[o+]c3cc(N(C)C)ccc23)c(C(=O)[O-])c1)[C@@H](C)O)[C@@H](C)O)C(C)C)C(=O)N[C@@H](Cc1ccc(O)cc1)C(=O)N[C@@H](C)C(=O)N[C@@H](C)C(=O)N[C@@H](CCSC)C(=O)N[C@@H](CCSC)C(=O)N[C@H](C(=O)N[C@@H](CCSC)C(=O)N[C@@H](CCC(=O)O)C(=O)N[C@@H](Cc1ccc(O)cc1)C(=O)N[C@@H](Cc1ccc(O)cc1)C(=O)N[C@@H](CCCNC(=N)N)C(=O)N[C@@H](CCC(N)=O)C(=O)N[C@@H](CO)C(=O)N[C@@H](CCCCN)C(=O)N[C@@H](C)C(=O)N[C@@H](CCCCN)C(=O)N[C@@H](CCCCN)C(=O)N[C@@H](CC(C)C)C(=O)N[C@@H](CCC(N)=O)C(=O)N[C@@H](C)C(=O)N[C@@H](CCSC)C(=O)N[C@@H](CCCNC(=N)N)C(=O)N[C@@H](CCC(=O)O)C(=O)N[C@@H](CCC(=O)O)C(=O)N[C@@H](CCC(N)=O)C(=O)N[C@@H](CC(=O)O)C(N)=O)[C@@H](C)CC
